# Data: paper PMC11940065, “Conformational Analyses of the AHD1-UBAN Region of TNIP1 Highlight Key Amino Acids for Interaction with Ubiquitin” (Biomolecules, 2025)
# Substitutions are numbered along the chain they refer to. Names may count otherwise.
# B1: AHD1-UBAN E425Q (domain or fragment, human, UniProt Q15025 417-509, looked up)
# chain: QRLNKALEQALSIQTPPSSPPTAFGSPEGAGALLRKQELVTQNELLKQQVKIFEEDFQRERSDRERMNEEKEELKKQVEKLQAQVTLSNAQLK
# notes: TNIP1 (ABIN1), human, amino acids 417-509 with E425Q; source: E. coli Rosetta2 (DE3), purified (IMAC, SEC)
# B2: AHD1-UBAN E444Q (domain or fragment, human, UniProt Q15025 417-509, looked up)
# chain: B1 chain with Q9E, E28Q
# notes: TNIP1 (ABIN1), human, amino acids 417-509 with E444Q; source: E. coli Rosetta2 (DE3), purified (IMAC, SEC)
# B3: AHD1-UBAN E444F (domain or fragment, human, UniProt Q15025 417-509, looked up)
# chain: B1 chain with Q9E, E28F
# notes: TNIP1 (ABIN1), human, amino acids 417-509 with E444F; source: E. coli Rosetta2 (DE3), purified (IMAC, SEC)
# B4: WT AHD1-UBAN (TNIP1 417-509) (domain or fragment, human, UniProt Q15025 417-509, looked up)
# chain: B1 chain with Q9E
# notes: TNIP1 (ABIN1), human, amino acids 417-509, the contiguous AHD1 and UBAN domains with their linker; In pET-28a(+); 15N-labelled for NMR; labelled with RED-tris-NTA dye on the His tag for MST; also called wildtype; ABIN1 AHD1-UBAN; source: E. coli Rosetta2 (DE3), purified (IMAC, SEC)
# B5: AHD1-UBAN P436W (domain or fragment, human, UniProt Q15025 417-509, looked up)
# chain: B1 chain with Q9E, P20W
# notes: TNIP1 (ABIN1), human, amino acids 417-509 with P436W; source: E. coli Rosetta2 (DE3), purified (IMAC, SEC)
# B6: AHD1-UBAN E425W (domain or fragment, human, UniProt Q15025 417-509, looked up)
# chain: B1 chain with Q9W
# notes: TNIP1 (ABIN1), human, amino acids 417-509 with E425W; source: E. coli Rosetta2 (DE3), purified (IMAC, SEC)
# Target: T1, Methionine-1-linked triubiquitin (UniProt P0CG48 1-76; P0CG48 1-76; P0CG48 1-76)
# T1 construct: ubiquitin, unit 1 of 3, joined head to tail (M1-linked) on one chain; ubiquitin, unit 2 of 3, joined head to tail (M1-linked) on one chain; ubiquitin, unit 3 of 3, joined head to tail (M1-linked) on one chain; also called M1-triUb; M1-linked triubiquitin; source: bacterial production, purified (IMAC, SEC)
# Test: far-UV circular dichroism difference spectra; 1:1 molar mixture, each protein at 10 µM, 50 mM sodium phosphate pH 8.0, room temperature; compared with the mathematical average of the two separate spectra
# Conditions: both partners purified
# T1 sequence (P0CG48 1-228, one chain of several): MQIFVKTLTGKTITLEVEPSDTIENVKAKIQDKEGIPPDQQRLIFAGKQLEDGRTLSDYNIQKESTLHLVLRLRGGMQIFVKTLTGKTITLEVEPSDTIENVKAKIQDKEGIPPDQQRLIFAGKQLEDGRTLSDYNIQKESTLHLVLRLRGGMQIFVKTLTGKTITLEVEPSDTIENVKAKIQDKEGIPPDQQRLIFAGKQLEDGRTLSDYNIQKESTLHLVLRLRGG
row,Binder,binding result
1,B1,binds
2,B2,binds
3,B3,binds

# Target: T1, Methionine-1-linked triubiquitin
# Test: MST; AHD1-UBAN labelled with RED-tris-NTA 2nd generation dye on its 6x-histidine tag; 16-step 2-fold serial dilution of M1-triUb from 40 µM to 610 pM; standard capillaries, Monolith X, MST power 40%, 23 °C; n = 2
# Conditions: both partners purified
row,Binder,Kd
1,B4,3.85 ± 0.89 µM
2,B5,8.38 ± 0.77 µM
3,B6,7.41 ± 2.28 µM
